For assay [1], the target named is MBP-tagged split mFAP fragment m12. Nature of the assay: split reporter (BiFC, NanoBiT); protein-fragment complementation in vitro: complementary MBP-fused split mFAP fragments mixed at equimolar concentration with excess DFHBI-1T (1.00 uL of 1.25 mM in 25.0 uL); fluorescence endpoint ex 478 nm, em 520 nm; background without protein.
Assay [2] shares this target. Nature of the assay: other fluorescence titration; MBP-tagged fragment titrated into its complementary MBP-tagged fragment; 25.0 uM DFHBI-1T; high-salt Tev cleavage buffer (25.0 mM Tris, 100 mM NaCl, pH 8.00); ex 468 nm, em 530 nm; estimated Kd, signal did not plateau.

B1: MBP-tagged split mFAP fragment m38 (domain or fragment)
chain: YTMDIVAQGTISDGRPIVGYGKATVKTPDTLDIDITYPSLGNIKAQGQITMDSPTQFKWDATTKGENDFHGRLTGTLQRQE
modifications: here or on the partner: strands 3-8; cut assumed in loop2 (34/35); MBP omitted / strands 1-2 of mFAP2a; cut assumed in loop2 (34/35, as in cp35-34); exact limits are in Supplementary Data 1, not shown; MBP omitted
Consider B1, for which, in assay [1], the fold mean fluorescence intensity over background was determined as 7.34 fold; the fold mean fluorescence intensity over the combination m1 and m28 came to 184 fold. Moreover, in assay [2], the dissociation constant Kd (in general, the concentration at which binding is half-saturated) is over 281 µM.
